What was measured:
[1] = molecular target: T1, Cynomolgus folate receptor alpha (cynomolgus monkey, UniProt P15328 25-234 (human entry)); test: FACS, CHO-cFOLR1 cells
T1 construct: Stably expressed on CHO cells (CHO-cFOLR1); also called cynomolgus FOLR1; CHO-cFOLR1

[2] = molecular target: T2, Human folate receptor alpha (hFOLR1) (human, UniProt P15328 25-234); test: FACS, CHO-hFOLR1 cells
T2 construct: Stably expressed on CHO cells (CHO-hFOLR1) for flow cytometry; endogenous on FOLR1-positive KB and Igrov1 cells in the killing assay; also called human FOLR1; FolRα
T2 sequence (P15328 25-234 limits assumed): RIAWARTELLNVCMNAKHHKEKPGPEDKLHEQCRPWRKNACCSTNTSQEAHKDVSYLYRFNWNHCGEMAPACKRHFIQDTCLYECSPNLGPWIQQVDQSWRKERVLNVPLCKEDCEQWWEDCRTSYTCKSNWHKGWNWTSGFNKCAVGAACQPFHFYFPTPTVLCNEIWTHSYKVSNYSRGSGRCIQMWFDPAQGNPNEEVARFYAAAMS
Protocol: CHO cells were transfected to stably express human (CHO-hFOLR1), cynomolgus (CHO-cFOLR1), or mouse (CHO-mFOLR1) target molecule FOLR1 on the cell surface. Parental CHO cells were used as a negative control to determine background binding levels. Parental CHO and stably transfected CHO-hFOLR1, CHO-cFOLR1, and CHO-mFOLR1 cells were cultured in Ham's F-12: high glucose DMEM (50:50) (Corning, Cellgro-Mediatech) supplemented with 10% heat-inactivated fetal bovine serum (Corning, Cellgro-Mediatech), 1% Penicillin/Streptomycin (Corning, Cellgro-Mediatech) and 2 mmol/L-glutamax (Life Technology).
A mixture of fluoresecent-labeled parental CHO cells and unlabeled CHO-hFOLRlcells were prepared as follows. Parental CHO cells were washed twice in PBS and incubated in PBS containing with 1 nM CellTrace™ Oregon Green488® (Life Technologies) at 37° C. for 30 minutes. Labeled parental CHO cells were then washed 2× with Ham's F-12 media and 2× with FACS buffer (PBS with 1% bovine serum albumin). Unlabeled CHO-hFOLR1 cells were similarly washed and prepared. Labeled parental CHO and unlabeled CHO-hFOLR1 cells were combined at 1:1 ratio and seeded at 50 μL per well (200,000 cells per well) in 96 well polypropylene plates. Cells were mixed with 50 μL of test antibodies (i.e., anti-FOLR1 variants) serially diluted in FACS buffer and incubated on ice for 60 mins. Cells were washed with FACS buffer and incubated on ice for 60 mins with 100 μL FACS buffer containing 2.5 μg/mL R-Phycoerythrin-conjugated goat anti-Human IgG (Jackson ImmunoResearch Laboratories, West Grove, Pa.). Cells were washed twice with FACS buffer, fixed in 2% paraformaldehyde in PBS (Santa Cruz Biotechnology; Dallas, Tex.) for 10 mins on ice in the dark, and analyzed using the BD LSR II Flow Cytometer (BD Biosciences; San Jose, Calif.). Data were analyzed using FlowJo® software (FlowJo, LLC; Ashland, Oreg.) to determine mean fluorescence intensities. Binding constants were calculated using the statistical software, GraphPad Prism (GraphPad Software; La Jolla, Calif.) using the nonlinear regression equation, one site-specific binding with Hill slope. Secondary antibody alone was used as a control, in addition to measuring non-specific antibody binding to CHO parental cells.

[3] = molecular target: T3, Murine folate receptor alpha (mouse, UniProt P35846 25-232); test: FACS, CHO-mFOLR1 cells
T3 construct: Stably expressed on CHO cells (CHO-mFOLR1); also called mouse FOLR1; CHO-mFOLR1
T3 sequence (P35846 25-232 limits assumed): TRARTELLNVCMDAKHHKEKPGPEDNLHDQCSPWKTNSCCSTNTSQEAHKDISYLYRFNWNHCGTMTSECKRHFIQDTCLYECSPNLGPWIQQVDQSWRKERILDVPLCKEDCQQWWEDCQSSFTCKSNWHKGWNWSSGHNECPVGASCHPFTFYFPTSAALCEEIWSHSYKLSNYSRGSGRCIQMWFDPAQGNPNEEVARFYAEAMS

T1 sequence (P15328 other isoform, or with tags, fused parts or gaps limits assumed): as the sequence (P15328 25-234 limits assumed) above, with I2T, W4R, R37K, Q117R, A146P, H171Y counted along it

Binder	Bmax [1] [MFI]	Bmax [2] [MFI]	Bmax [3] [MFI]
SRP1848-C03 (antibody, V domains shown, VH/VL only; Fc-bearing IgG format with trastuzumab LC, HIS/FLAG-tagged, cell-free expressed; constant regions not tied; also called Antibody 19) VH: EVQLVESGGGLVQPGGSLRLSCAASGFNIGVYSIHWVRQAPGKGLEWVGEIYPIDGNTDYADSVKGRFTISADTSKNTAYLQMNSLRAEDTAVYYCARGSWAWRSGYSYYLDYWGQGTLVTVSS VL: not shown	25100	29100	3310
SRP1848-C04 (antibody, V domains shown, VH/VL only; Fc-bearing IgG format with trastuzumab LC, HIS/FLAG-tagged, cell-free expressed; constant regions not tied; also called Antibody 20) VH: EVQLVESGGGLVQPGGSLRLSCAASGFNIRHYSIHWVRQAPGKGLEWVGEIYPGPGNTDYADSVKGRFTISADTSKNTAYLQMNSLRAEDTAVYYCARGSLSWRAGYGYYLDYWGQGTLVTVSS VL: not shown	22000	26300	2510
SRP1848-C05 (antibody, V domains shown, VH/VL only; Fc-bearing IgG format with trastuzumab LC, HIS/FLAG-tagged, cell-free expressed; constant regions not tied; also called Antibody 21) VH: EVQLVESGGGLVQPGGSLRLSCAASGFNIRKYSIHWVRQAPGKGLEWVGDIFPIDGINDYADSVKGRFTISADTSKNTAYLQMNSLRAEDTAVYYCARGSWSWKAGYGYYLDYWGQGTLVTVSS VL: not shown	15200	26800	4130
SRP1848-C07 (antibody, V domains shown, VH/VL only; Fc-bearing IgG format with trastuzumab LC, HIS/FLAG-tagged, cell-free expressed; constant regions not tied; also called Antibody 22) VH: EVQLVESGGGLVQPGGSLRLSCAASGFNIRKYSIHWVRQAPGKGLEWVGDIFPIDGITDYADSMKGRFTISADTSKNTAYLQMNSLRAEDTAVYYCARGSWSWPAGYGYYQDYWGQGTLVTVSS VL: not shown	18100	28800	3170
SRP1848-C10 (antibody, V domains shown, VH/VL only; Fc-bearing IgG format with trastuzumab LC, HIS/FLAG-tagged, cell-free expressed; constant regions not tied; also called Antibody 23) VH: EVQLVESGGGLVQPGGSLRLSCAASGFNIRTYYIHWVRQAPGKGLEWVGGISPIDGYTDYADSVKGRFTISADTSKNTAYLQMNSLRAEDTAVYYCARGSWSWPAGYGYYLDYWGQGTLVTVSS VL: not shown	16000	27500	2330
SRP1848-D02 (antibody, V domains shown, VH/VL only; Fc-bearing IgG format with trastuzumab LC, HIS/FLAG-tagged, cell-free expressed; constant regions not tied; also called Antibody 24) VH: EVQLVESGGGLVQPGGSLRLSCAASGFNISHNYIHWVRQAPGKGLEWVGGITPQDGYTDYADSVKGRFTISADTSKNTAYLQMNRLRAEDTAVYYCARGAWSWRAGYGYYLDYWGQGTLVTVSS VL: not shown	28000	28800	916
SRP1848-D05 (antibody, V domains shown, VH/VL only; Fc-bearing IgG format with trastuzumab LC, HIS/FLAG-tagged, cell-free expressed; constant regions not tied; also called Antibody 27) VH: EVQLVESGGGLVQPGGSLRLSCAASGFNISISYIHWVRQAPGKGLEWVGGISPIDGYTDYADSVKGRFTISADTSKNTAYLQMNSLRAEDTAVYYCARGSWSWRAGYGYYLDYWGQGTLVTVSS VL: not shown	22200	26700	1360
SRP1848-D10 (antibody, V domains shown, VH/VL only; Fc-bearing IgG format with trastuzumab LC, HIS/FLAG-tagged, cell-free expressed; constant regions not tied; also called Antibody 30) VH: EVQLVESGGGLVQPGGSLRLSCAASGFNISRNSIHWVRQAPGKGLEWVGWISPNDGTTDYADSVKGRFTISADGSKNTAYLQMNSLRAEDTAVYYCARGAWSWRSGYGYYIDYWGQGTLVTVSS VL: not shown	20600	26500	1860
SRP1848-E02 (antibody, V domains shown, VH/VL only; Fc-bearing IgG format with trastuzumab LC, HIS/FLAG-tagged, cell-free expressed; constant regions not tied; also called Antibody 32) VH: EVQLVESGGGLVQPGGSLRLSCAASGFNIGKYSIHWVRQAPGKGLEWVGEIYPNDGNTDYADSVKGRFTISADTSKNTAYLQMNSLRAEDTAVYYCARGSWSWRSGYGYYLDYWGQGTLVTVSS VL: not shown	18700	23800	1470
SRP1848-E07 (antibody, V domains shown, VH/VL only; Fc-bearing IgG format with trastuzumab LC, HIS/FLAG-tagged, cell-free expressed; constant regions not tied; also called Antibody 36) VH: EVQLVESGGGLVQPGGSLRLSCAASGFNIRKSSIHWVRQAPGKGLEWVGEIFPYDGSTDYADNVKGRFTISADTSKNTAYLQMNSLRAEDTAVYYCARGAWSWRSGYGYYIDYWGQGTLVTVSS VL: not shown	20400	27300	11800
SRP1848-F01 (antibody, V domains shown, VH/VL only; Fc-bearing IgG format with trastuzumab LC, HIS/FLAG-tagged, cell-free expressed; constant regions not tied; also called Antibody 37) VH: EVQLVESGGGLVQPGGSLRLSCAASGFNIRTYSIHWVRQAPGKGLEWVGSIFPNDGTTDYADSVKGRFTISADTSKNTAYLQMNSLRAEDTAVYYCARGSWAWRAGYSYYLDYWGQGTLVTVSS VL: not shown	21500	25200	3750
